{"source": "the supplement of paper PMC9112550", "about": "“Optimization of the antimicrobial peptide Bac7 by deep mutational scanning” (BMC Biology, 2022);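 also: peptides expressed intracellularly from a pBAD plasmid library in pooled LB shake-flask culture, induced with 0.3% L-arabinose, DNA abundance read by NGS, three biological replicates, DESeq2 with apeglm shrinkage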", "data": [{"test_system": "Escherichia coli TOP10", "experiment": "shrunken log2 fold change of peptide-encoding DNA abundance (4.5 h post-induction vs induction); higher = less antimicrobial activity (less host growth inhibition)", "conditions": "time post-induction: 4.5 h; library: site-saturation at positions 5, 18, 19, 20", "values": [{"sequence": "RRIRARPPRLPRPRPRPDRNPRP", "shrunken log2 fold change": -0.066}, {"sequence": "RRIRVRPPRLPRPRPRPAKNPRP", "shrunken log2 fold change": 0.153}, {"sequence": "RRIRHRPPRLPRPRPRPWRYPRP", "shrunken log2 fold change": -0.49}, {"sequence": "RRIRFRPPRLPRPRPRPQCEPRP", "shrunken log2 fold change": 0.0491}, {"sequence": "RRIRARPPRLPRPRPRPSDDPRP", "shrunken log2 fold change": 0.282}, {"sequence": "RRIRDRPPRLPRPRPRPNCLPRP", "shrunken log2 fold change": 0.0835}, {"sequence": "RRIRCRPPRLPRPRPRPAPAPRP", "shrunken log2 fold change": 0.84}, {"sequence": "RRIRQRPPRLPRPRPRPHWCPRP", "shrunken log2 fold change": 0.1}, {"sequence": "RRIRTRPPRLPRPRPRPDSFPRP", "shrunken log2 fold change": 0.033}, {"sequence": "RRIRCRPPRLPRPRPRPPWAPRP", "shrunken log2 fold change": 0.317}, {"sequence": "RRIRFRPPRLPRPRPRPYYQPRP", "shrunken log2 fold change": -0.203}, {"sequence": "RRIRSRPPRLPRPRPRPRANPRP", "shrunken log2 fold change": 0.174}, {"sequence": "RRIRHRPPRLPRPRPRPPESPRP", "shrunken log2 fold change": 0.211}, {"sequence": "RRIRWRPPRLPRPRPRPEVNPRP", "shrunken log2 fold change": 0.321}, {"sequence": "RRIRSRPPRLPRPRPRPDAPPRP", "shrunken log2 fold change": 0.49}, {"sequence": "RRIRFRPPRLPRPRPRPCRLPRP", "shrunken log2 fold change": -0.209}, {"sequence": "RRIRNRPPRLPRPRPRPQDHPRP", "shrunken log2 fold change": -0.33}, {"sequence": "RRIRERPPRLPRPRPRPQIQPRP", "shrunken log2 fold change": 0.136}, {"sequence": "RRIRTRPPRLPRPRPRPESMPRP", "shrunken log2 fold change": 0.0954}, {"sequence": "RRIRRRPPRLPRPRPRPFRNPRP", "shrunken log2 fold change": -0.0392}, {"sequence": "RRIRHRPPRLPRPRPRPERGPRP", "shrunken log2 fold change": 1.02}, {"sequence": "RRIRWRPPRLPRPRPRPRMAPRP", "shrunken log2 fold change": 0.614}, {"sequence": "RRIRNRPPRLPRPRPRPTQAPRP", "shrunken log2 fold change": 0.24}, {"sequence": "RRIRQRPPRLPRPRPRPALVPRP", "shrunken log2 fold change": 0.297}, {"sequence": "RRIRIRPPRLPRPRPRPTGFPRP", "shrunken log2 fold change": -0.0748}, {"sequence": "RRIRGRPPRLPRPRPRPIHPPRP", "shrunken log2 fold change": 0.0319}, {"sequence": "RRIRCRPPRLPRPRPRPFGPPRP", "shrunken log2 fold change": -0.283}, {"sequence": "RRIRTRPPRLPRPRPRPAHCPRP", "shrunken log2 fold change": -0.168}, {"sequence": "RRIRKRPPRLPRPRPRPSVWPRP", "shrunken log2 fold change": 0.645}, {"sequence": "RRIRFRPPRLPRPRPRPLPWPRP", "shrunken log2 fold change": -0.195}, {"sequence": "RRIRLRPPRLPRPRPRPMIDPRP", "shrunken log2 fold change": -0.0169}, {"sequence": "RRIRFRPPRLPRPRPRPLCPPRP", "shrunken log2 fold change": 0.016}, {"sequence": "RRIRQRPPRLPRPRPRPDQEPRP", "shrunken log2 fold change": 0.0119}, {"sequence": "RRIRDRPPRLPRPRPRPTSQPRP", "shrunken log2 fold change": 0.495}, {"sequence": "RRIRARPPRLPRPRPRPEHAPRP", "shrunken log2 fold change": 0.564}, {"sequence": "RRIRARPPRLPRPRPRPRGRPRP", "shrunken log2 fold change": 0.703}, {"sequence": "RRIRARPPRLPRPRPRPMCQPRP", "shrunken log2 fold change": 0.13}, {"sequence": "RRIRKRPPRLPRPRPRPPNQPRP", "shrunken log2 fold change": 0.17}, {"sequence": "RRIRDRPPRLPRPRPRPYVCPRP", "shrunken log2 fold change": 0.0261}, {"sequence": "RRIRQRPPRLPRPRPRPSITPRP", "shrunken log2 fold change": -0.731}, {"sequence": "RRIRVRPPRLPRPRPRPWPGPRP", "shrunken log2 fold change": 0.101}, {"sequence": "RRIRPRPPRLPRPRPRPIEIPRP", "shrunken log2 fold change": -0.0794}, {"sequence": "RRIRVRPPRLPRPRPRPFTFPRP", "shrunken log2 fold change": -0.0282}, {"sequence": "RRIRMRPPRLPRPRPRPCWKPRP", "shrunken log2 fold change": -0.0216}, {"sequence": "RRIRKRPPRLPRPRPRPPSTPRP", "shrunken log2 fold change": 0.661}, {"sequence": "RRIRQRPPRLPRPRPRPQIPPRP", "shrunken log2 fold change": -0.214}, {"sequence": "RRIRNRPPRLPRPRPRPRQEPRP", "shrunken log2 fold change": 0.00772}, {"sequence": "RRIRSRPPRLPRPRPRPQCEPRP", "shrunken log2 fold change": 0.00747}, {"sequence": "RRIRFRPPRLPRPRPRPSSQPRP", "shrunken log2 fold change": -0.458}, {"sequence": "RRIRTRPPRLPRPRPRPHYSPRP", "shrunken log2 fold change": -0.0429}, {"sequence": "RRIRKRPPRLPRPRPRPNGSPRP", "shrunken log2 fold change": 0.0677}, {"sequence": "RRIRPRPPRLPRPRPRPAQGPRP", "shrunken log2 fold change": 0.156}, {"sequence": "RRIRDRPPRLPRPRPRPHKYPRP", "shrunken log2 fold change": -0.116}, {"sequence": "RRIRSRPPRLPRPRPRPDYLPRP", "shrunken log2 fold change": -0.0749}, {"sequence": "RRIRARPPRLPRPRPRPSNNPRP", "shrunken log2 fold change": -0.376}, {"sequence": "RRIRLRPPRLPRPRPRPMSPPRP", "shrunken log2 fold change": 0.0855}, {"sequence": "RRIRHRPPRLPRPRPRPDYRPRP", "shrunken log2 fold change": -0.127}, {"sequence": "RRIRIRPPRLPRPRPRPLPMPRP", "shrunken log2 fold change": -0.204}, {"sequence": "RRIRFRPPRLPRPRPRPWMMPRP", "shrunken log2 fold change": -0.897}, {"sequence": "RRIRHRPPRLPRPRPRPQNDPRP", "shrunken log2 fold change": 0.0173}, {"sequence": "RRIRMRPPRLPRPRPRPKHSPRP", "shrunken log2 fold change": 0.247}, {"sequence": "RRIRRRPPRLPRPRPRPGGKPRP", "shrunken log2 fold change": 0.0881}, {"sequence": "RRIRPRPPRLPRPRPRPYPCPRP", "shrunken log2 fold change": -0.134}, {"sequence": "RRIRCRPPRLPRPRPRPDRFPRP", "shrunken log2 fold change": 0.0616}, {"sequence": "RRIRERPPRLPRPRPRPPRQPRP", "shrunken log2 fold change": 0.26}, {"sequence": "RRIRHRPPRLPRPRPRPDDYPRP", "shrunken log2 fold change": -0.00759}, {"sequence": "RRIRTRPPRLPRPRPRPWLFPRP", "shrunken log2 fold change": 0.212}, {"sequence": "RRIRGRPPRLPRPRPRPIKVPRP", "shrunken log2 fold change": 0.356}, {"sequence": "RRIRTRPPRLPRPRPRPTPKPRP", "shrunken log2 fold change": 0.283}, {"sequence": "RRIRLRPPRLPRPRPRPQDFPRP", "shrunken log2 fold change": 0.0788}, {"sequence": "RRIRHRPPRLPRPRPRPVNIPRP", "shrunken log2 fold change": -0.459}, {"sequence": "RRIRYRPPRLPRPRPRPVCIPRP", "shrunken log2 fold change": -1.24}, {"sequence": "RRIRARPPRLPRPRPRPWDRPRP", "shrunken log2 fold change": 0.0339}, {"sequence": "RRIRGRPPRLPRPRPRPLFVPRP", "shrunken log2 fold change": 0.203}, {"sequence": "RRIRKRPPRLPRPRPRPWFKPRP", "shrunken log2 fold change": -0.0948}, {"sequence": "RRIRGRPPRLPRPRPRPCHKPRP", "shrunken log2 fold change": 0.121}, {"sequence": "RRIRRRPPRLPRPRPRPPGNPRP", "shrunken log2 fold change": 0.428}, {"sequence": "RRIRNRPPRLPRPRPRPKLMPRP", "shrunken log2 fold change": -0.109}, {"sequence": "RRIRFRPPRLPRPRPRPIYSPRP", "shrunken log2 fold change": -0.751}, {"sequence": "RRIRMRPPRLPRPRPRPLEDPRP", "shrunken log2 fold change": 2.77}, {"sequence": "RRIRTRPPRLPRPRPRPEPCPRP", "shrunken log2 fold change": 0.0427}, {"sequence": "RRIRKRPPRLPRPRPRPHAMPRP", "shrunken log2 fold change": -0.0147}, {"sequence": "RRIRIRPPRLPRPRPRPSNPPRP", "shrunken log2 fold change": -0.74}, {"sequence": "RRIRTRPPRLPRPRPRPMHKPRP", "shrunken log2 fold change": -0.271}, {"sequence": "RRIRVRPPRLPRPRPRPLFPPRP", "shrunken log2 fold change": 0.0958}, {"sequence": "RRIRMRPPRLPRPRPRPYNIPRP", "shrunken log2 fold change": -0.358}, {"sequence": "RRIRHRPPRLPRPRPRPTLHPRP", "shrunken log2 fold change": 0.0488}, {"sequence": "RRIRRRPPRLPRPRPRPYPSPRP", "shrunken log2 fold change": -0.305}, {"sequence": "RRIRVRPPRLPRPRPRPAEEPRP", "shrunken log2 fold change": 0.113}, {"sequence": "RRIRTRPPRLPRPRPRPEEEPRP", "shrunken log2 fold change": 0.385}, {"sequence": "RRIRFRPPRLPRPRPRPFDGPRP", "shrunken log2 fold change": -0.251}, {"sequence": "RRIRIRPPRLPRPRPRPLLNPRP", "shrunken log2 fold change": -0.731}, {"sequence": "RRIRDRPPRLPRPRPRPMRVPRP", "shrunken log2 fold change": 0.304}, {"sequence": "RRIRLRPPRLPRPRPRPYHQPRP", "shrunken log2 fold change": -0.026}, {"sequence": "RRIRHRPPRLPRPRPRPTEYPRP", "shrunken log2 fold change": -0.301}, {"sequence": "RRIRQRPPRLPRPRPRPSAEPRP", "shrunken log2 fold change": 0.117}, {"sequence": "RRIRCRPPRLPRPRPRPNSKPRP", "shrunken log2 fold change": 0.297}, {"sequence": "RRIRCRPPRLPRPRPRPGDRPRP", "shrunken log2 fold change": 0.0429}, {"sequence": "RRIRSRPPRLPRPRPRPTSWPRP", "shrunken log2 fold change": 0.239}, {"sequence": "RRIRERPPRLPRPRPRPIYSPRP", "shrunken log2 fold change": -0.413}, {"sequence": "RRIRWRPPRLPRPRPRPYYFPRP", "shrunken log2 fold change": -0.692}, {"sequence": "RRIRERPPRLPRPRPRPWFLPRP", "shrunken log2 fold change": -0.628}, {"sequence": "RRIRARPPRLPRPRPRPQWNPRP", "shrunken log2 fold change": -0.00397}, {"sequence": "RRIRYRPPRLPRPRPRPHVLPRP", "shrunken log2 fold change": -0.0311}, {"sequence": "RRIRRRPPRLPRPRPRPVAYPRP", "shrunken log2 fold change": 0.263}, {"sequence": "RRIRKRPPRLPRPRPRPEMLPRP", "shrunken log2 fold change": 2}, {"sequence": "RRIRIRPPRLPRPRPRPTFWPRP", "shrunken log2 fold change": 0.407}, {"sequence": "RRIRQRPPRLPRPRPRPDRYPRP", "shrunken log2 fold change": 0.0513}, {"sequence": "RRIRLRPPRLPRPRPRPHRGPRP", "shrunken log2 fold change": -0.00203}]}]}
